The data set relates to Saccharomyces cerevisiae. The data set can be described thus: protein stability index of tFT-peptide fusion (C-terminal peptide) (PSI (0-1 scale)); higher = more stable (slower turnover). To be noted: temperature: 30 C. As to the method:
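MPS profiling in S. cerevisiae of the yeast C-terminome library: the last 12 aa of each annotated ORF are fused to the C-terminus of a sfGFP-mCherry timer, after a GGGS linker. Cells are FACS-sorted into 8 mCherry/sfGFP bins and deep-sequenced. PSI runs from 0 (unstable) to 1 (stable); wild type and das1Δ backgrounds, two technical replicates each.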

[1] abbreviates: genetic background: das1 deletion.

± gives the standard deviation of the averaged measurements.

KLIHIPIRYVIV [SSS1 C-terminal 12 aa]: the protein stability index came to 0.424 ± 0.03 under setting [1] and 0.3647 ± 0.00092 (genetic background: wild type).

On to KLQPQVYKPWSL [RSC8 C-terminal 12 aa], for which the protein stability index runs as follows: under setting [1], 0.6842 ± 0.0019; (genetic background: wild type) 0.703 ± 0.0092.

In turn, KNHDFKDCADIF [SWH1 C-terminal 12 aa] registered a protein stability index under setting [1] of 0.721 ± 0.017 and a protein stability index (genetic background: wild type) of 0.688 ± 0.043.

In the case of KNIPEKFKNGIF [SSP120 C-terminal 12 aa], the protein stability index was found to be 0.729 ± 0.036 under setting [1] and 0.647 ± 0.0098 (genetic background: wild type).

Regarding KNLQNELEKNNA [RTN1 C-terminal 12 aa], the protein stability index worked out at 0.6887 ± 0.0022 under setting [1] and 0.6647 ± 0.0021 (genetic background: wild type).

In the case of KNLTRTSVSFIG [TRS85 C-terminal 12 aa], the protein stability index is, setting by setting: under setting [1], 0.7307 ± 0.0033; (genetic background: wild type) 0.702 ± 0.037.

Take KNSNLSPTQIEL [SSK1 C-terminal 12 aa]: the protein stability index is, setting by setting: under setting [1], 0.7083 ± 0.0012; (genetic background: wild type) 0.693 ± 0.024.

In the case of KPFYYKIYRFWC [SAM3 C-terminal 12 aa], the protein stability index came out at 0.735 ± 0.024 under setting [1] and 0.3886 ± 0.0019 (genetic background: wild type).

As to KPGGSKKRKTKA [RFC1 C-terminal 12 aa], the protein stability index is, setting by setting: under setting [1], 0.729 ± 0.011; (genetic background: wild type) 0.747 ± 0.15.

For the sequence KPGLTVYSIELL [SMP3 C-terminal 12 aa], the protein stability index came out at 0.6898 ± 0.0048 under setting [1] and 0.692 ± 0.011 (genetic background: wild type).

Turning to KPMAYSNGGFGL [PPT1 C-terminal 12 aa], the protein stability index came to 0.674 ± 0.015 under setting [1] and 0.668 ± 0.015 (genetic background: wild type).

Turning to KQAQEGTKNLKI [PAC10 C-terminal 12 aa], the protein stability index under setting [1] was found to be 0.714 ± 0.055 and the protein stability index (genetic background: wild type) is 0.666 ± 0.029.

“KQRFLLCWSTKL [YHR131W-A C-terminal 12 aa]” gave a protein stability index under setting [1] of 0.693 ± 0.034 and a protein stability index (genetic background: wild type) of 0.55 ± 0.04.

For the sequence KQYSSPEICFRV [YBR134W C-terminal 12 aa], the protein stability index came out at 0.692 ± 0.029 under setting [1] and 0.663 ± 0.014 (genetic background: wild type).

KRAENNAQKKTN [ERG25 C-terminal 12 aa]: the protein stability index stood at 0.689 ± 0.019 under setting [1] and 0.495 ± 0.0083 (genetic background: wild type).

With KRRPYVRAHAKW [YGR051C C-terminal 12 aa], the protein stability index runs as follows: under setting [1], 0.7089 ± 0.0043; (genetic background: wild type) 0.698 ± 0.05.

“KRRSDSKESRKL [YPR145C-A C-terminal 12 aa]”: the protein stability index under setting [1] was 0.713 ± 0.037 and the protein stability index (genetic background: wild type) was found to be 0.673 ± 0.03.

As to KSQISVSFYRDN [YPR027C C-terminal 12 aa], the protein stability index is, setting by setting: under setting [1], 0.704 ± 0.04; (genetic background: wild type) 0.6736 ± 0.0023.

As for KSVRIAIDKPIR [ALD5 C-terminal 12 aa], the protein stability index by setting is: under setting [1], 0.696 ± 0.026; (genetic background: wild type) 0.666 ± 0.018.

Turning to KTGKKNKVAKKN [SRP14 C-terminal 12 aa], the protein stability index worked out at 0.682 ± 0.0078 under setting [1] and 0.692 ± 0.021 (genetic background: wild type).

Turning to “KTHRSRSSRKGN [YMR135W-A C-terminal 12 aa]”, the protein stability index is, setting by setting: under setting [1], 0.6834 ± 0.0026; (genetic background: wild type) 0.704 ± 0.023.

Consider KTQDYGKKYNSG [SIZ1 C-terminal 12 aa], for which the protein stability index runs as follows: under setting [1], 0.69 ± 0.018; (genetic background: wild type) 0.727 ± 0.0097.

The sequence KTVSDEEYAYIV [APM2 C-terminal 12 aa] came in with a protein stability index under setting [1] of 0.6901 ± 0.0029 and a protein stability index (genetic background: wild type) of 0.707 ± 0.011.

Turning to KTVSPNWEVKEL [CYM1 C-terminal 12 aa], the protein stability index was determined as 0.6828 ± 0.0036 under setting [1] and 0.702 ± 0.019 (genetic background: wild type).

As to KTYIKNDVEIFN [HBN1 C-terminal 12 aa], the protein stability index under setting [1] is 0.715 ± 0.025 and the protein stability index (genetic background: wild type) was 0.726 ± 0.067.

In turn, KVNGDIYRLPPS [MBA1 C-terminal 12 aa] displayed a protein stability index under setting [1] of 0.6888 ± 0.001 and a protein stability index (genetic background: wild type) of 0.677 ± 0.0092.

With KVRTQSKQPQEE [SAW1 C-terminal 12 aa], the protein stability index was found to be 0.682 ± 0.021 under setting [1] and 0.673 ± 0.026 (genetic background: wild type).

For the sequence KVSPADAAKKAL [RPS26A C-terminal 12 aa], the protein stability index under setting [1] came out at 0.704 ± 0.0096 and the protein stability index (genetic background: wild type) amounted to 0.718 ± 0.02.

On to KVTSANEHTSAV [PEX27 C-terminal 12 aa], for which the protein stability index stood at 0.689 ± 0.011 under setting [1] and 0.697 ± 0.013 (genetic background: wild type).

Consider KWGLSKKDGRQA [SLY41 C-terminal 12 aa], for which the protein stability index runs as follows: under setting [1], 0.699 ± 0.034; (genetic background: wild type) 0.7036 ± 0.0043.

KWLWRELEESSL [OCA5 C-terminal 12 aa]: the protein stability index reads like this: under setting [1], 0.745 ± 0.018; (genetic background: wild type) 0.7234 ± 0.0014.

KYKFYDDENLTE [SOL1 C-terminal 12 aa] displayed a protein stability index under setting [1] of 0.72 ± 0.017 and a protein stability index (genetic background: wild type) of 0.733 ± 0.081.

Take KYRRQVRYTQRT [YGL052W C-terminal 12 aa]: the protein stability index is 0.708 ± 0.0075 under setting [1] and 0.698 ± 0.013 (genetic background: wild type).

As for KYYETVGKADII [AIM36 C-terminal 12 aa], the protein stability index was found to be 0.68805 ± 0.00047 under setting [1] and 0.697 ± 0.025 (genetic background: wild type).

Regarding LADAGHLWHSIT [YNL120C C-terminal 12 aa], the protein stability index reads like this: under setting [1], 0.746 ± 0.02; (genetic background: wild type) 0.6128 ± 0.00091.

As to LADLRVYLRVPG [YGL088W C-terminal 12 aa], the protein stability index under setting [1] came out at 0.565 ± 0.021 and the protein stability index (genetic background: wild type) came to 0.568 ± 0.013.

Turning to LAFIAACKKYIY [IKS1 C-terminal 12 aa], the protein stability index reads like this: under setting [1], 0.696 ± 0.023; (genetic background: wild type) 0.487 ± 0.026.

With LAITIAALCASL [EXG2 C-terminal 12 aa], the protein stability index was 0.55 ± 0.0069 under setting [1] and 0.572 ± 0.018 (genetic background: wild type).

Turning to LAPLQFSGIVRS [YDR274C C-terminal 12 aa], the protein stability index runs as follows: under setting [1], 0.6773 ± 0.0022; (genetic background: wild type) 0.682 ± 0.045.

On to LAVEETIGFGQE [RSP5 C-terminal 12 aa], for which the protein stability index is 0.7037 ± 0.0066 under setting [1] and 0.692 ± 0.011 (genetic background: wild type).

As for LAWNPNLSAKRF [PRP46 C-terminal 12 aa], the protein stability index was 0.71 ± 0.031 under setting [1] and 0.705 ± 0.021 (genetic background: wild type).

Regarding LDDTPAPTATNL [NUD1 C-terminal 12 aa], the protein stability index is, setting by setting: under setting [1], 0.6857 ± 0.0035; (genetic background: wild type) 0.701 ± 0.034.

In the case of LDIFCLIFRKRT [YPR076W C-terminal 12 aa], the protein stability index under setting [1] turned out to be 0.508 ± 0.031 and the protein stability index (genetic background: wild type) worked out at 0.5061 ± 0.00095.

On to LDSVFSKFCIGK [MSS1 C-terminal 12 aa], for which the protein stability index was 0.7 ± 0.0095 under setting [1] and 0.703 ± 0.082 (genetic background: wild type).

Consider LEEETLPPSQKK [PYC2 C-terminal 12 aa], for which the protein stability index runs as follows: under setting [1], 0.694 ± 0.013; (genetic background: wild type) 0.647 ± 0.02.

With LEFVRGGSRQFT [TIM44 C-terminal 12 aa], the protein stability index reads like this: under setting [1], 0.689 ± 0.0081; (genetic background: wild type) 0.713 ± 0.02.

The sequence LEKHTASDTSCI [YAL066W C-terminal 12 aa] gave a protein stability index under setting [1] of 0.727 ± 0.025 and a protein stability index (genetic background: wild type) of 0.692 ± 0.072.

LENIKKAKEFFQ [GTR1 C-terminal 12 aa] returned a protein stability index under setting [1] of 0.726 ± 0.012 and a protein stability index (genetic background: wild type) of 0.705 ± 0.027.

On to LERLRYLFPNYW [MEU1 C-terminal 12 aa], for which the protein stability index reads like this: under setting [1], 0.738 ± 0.016; (genetic background: wild type) 0.717 ± 0.051.

For “LFFQDIERFFSC [YMR194C-A C-terminal 12 aa]”, the protein stability index runs as follows: under setting [1], 0.7717 ± 0.0042; (genetic background: wild type) 0.7619 ± 0.0028.

As to LHVISKVAGKLF [SBH1 C-terminal 12 aa], the protein stability index reads like this: under setting [1], 0.703 ± 0.022; (genetic background: wild type) 0.656 ± 0.014.

In the case of LIDLCCSCAGGM [MNC1 C-terminal 12 aa], the protein stability index reads like this: under setting [1], 0.685 ± 0.012; (genetic background: wild type) 0.643 ± 0.0049.

Consider “LIPELYSVLDGF [YDL007C-A C-terminal 12 aa]”, for which the protein stability index under setting [1] stood at 0.7449 ± 0.0037 and the protein stability index (genetic background: wild type) amounted to 0.74 ± 0.051.

Regarding LISEFQKKQAKK [MEF1 C-terminal 12 aa], the protein stability index was determined as 0.7194 ± 0.0033 under setting [1] and 0.691 ± 0.038 (genetic background: wild type).

Take LKDNLAKPKTRR [VBA2 C-terminal 12 aa]: the protein stability index is, setting by setting: under setting [1], 0.715 ± 0.0088; (genetic background: wild type) 0.708 ± 0.031.

With LKILRQKMNHQN [ATG1 C-terminal 12 aa], the protein stability index is, setting by setting: under setting [1], 0.686 ± 0.013; (genetic background: wild type) 0.207 ± 0.042.

LKNGDKPHLLKF [RPL6B C-terminal 12 aa] came in with a protein stability index under setting [1] of 0.714 ± 0.038 and a protein stability index (genetic background: wild type) of 0.686 ± 0.015.

On to LKRVVTKAMSSR [SSB1 C-terminal 12 aa], for which the protein stability index is, setting by setting: under setting [1], 0.714 ± 0.012; (genetic background: wild type) 0.6864 ± 0.0039.

Sequence LKSGEKESNASK [SDC1 C-terminal 12 aa] returned a protein stability index under setting [1] of 0.678 ± 0.0026 and a protein stability index (genetic background: wild type) of 0.652 ± 0.013.

LLCFRPTRGCGP [YCL041C C-terminal 12 aa]: the protein stability index was 0.7091 ± 0.0046 under setting [1] and 0.687 ± 0.013 (genetic background: wild type).

In turn, LLDAIELYQRHK [HEM4 C-terminal 12 aa] returned a protein stability index under setting [1] of 0.698 ± 0.017 and a protein stability index (genetic background: wild type) of 0.6704 ± 0.0026.

With LLEDLRSRIDLD [MLO50 C-terminal 12 aa], the protein stability index stood at 0.685 ± 0.048 under setting [1] and 0.744 ± 0.087 (genetic background: wild type).

Regarding LLHTVMNENKLP [LST7 C-terminal 12 aa], the protein stability index worked out at 0.716 ± 0.03 under setting [1] and 0.687 ± 0.054 (genetic background: wild type).

In the case of LLILLVLFSKFK [VTI1 C-terminal 12 aa], the protein stability index is, setting by setting: under setting [1], 0.295 ± 0.02; (genetic background: wild type) 0.302 ± 0.0073.

LMESEREARRLR [RPS28A C-terminal 12 aa]: the protein stability index reads like this: under setting [1], 0.708 ± 0.01; (genetic background: wild type) 0.6762 ± 0.0022.

LMKLFKSSKFSK [GEM1 C-terminal 12 aa]: the protein stability index reads like this: under setting [1], 0.724 ± 0.024; (genetic background: wild type) 0.694 ± 0.077.

For the sequence LMVPDPWYREGN [FAB1 C-terminal 12 aa], the protein stability index by setting is: under setting [1], 0.726 ± 0.018; (genetic background: wild type) 0.721 ± 0.031.
